Publication PMC5220320 (Scientific Reports, 2017)
Blank lines part the entries; values can stand above or below the molecule they belong to.

How the values were obtained:
[1] = target: T1, NDH-2 (type II NADH:quinone oxidoreductase) (Caldalkalibacillus thermarum, UniProt F5L3B8, I379E); test: CTC formation by absorbance and stopped-flow flavin reduction; assay type: binding
T1 construct: gene CathTA2_0279
T1 sequence (F5L3B8 1-399 I379E): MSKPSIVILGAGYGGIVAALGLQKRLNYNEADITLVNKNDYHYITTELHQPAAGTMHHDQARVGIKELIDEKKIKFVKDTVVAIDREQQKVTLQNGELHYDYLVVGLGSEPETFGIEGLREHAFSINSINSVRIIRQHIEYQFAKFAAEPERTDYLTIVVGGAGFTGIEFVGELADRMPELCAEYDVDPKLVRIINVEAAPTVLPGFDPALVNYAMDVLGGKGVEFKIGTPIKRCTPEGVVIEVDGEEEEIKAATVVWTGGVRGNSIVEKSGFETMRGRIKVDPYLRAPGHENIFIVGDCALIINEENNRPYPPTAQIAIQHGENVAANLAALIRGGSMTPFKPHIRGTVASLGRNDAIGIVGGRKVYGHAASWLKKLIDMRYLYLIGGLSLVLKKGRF

[2] = target: T2, NDH-2 (type II NADH:quinone oxidoreductase) (Caldalkalibacillus thermarum, UniProt F5L3B8, G164E); test: steady-state kinetics (KM); compromised binding, no CTC; assay type: biochemical
T2 construct: gene CathTA2_0279
T2 sequence (F5L3B8 1-399 G164E): T1 sequence (F5L3B8 1-399 I379E)

[3] = target: T3, NDH-2 (type II NADH:quinone oxidoreductase) (Caldalkalibacillus thermarum, UniProt F5L3B8); test: spectroscopic titration of reduced enzyme (CTC), upper limit for KD; co-crystal structure at […] Å; assay type: binding
T3 construct: gene CathTA2_0279
T3 sequence (F5L3B8 1-399): T1 sequence (F5L3B8 1-399 I379E)

CC1=CC(=O)c2ccccc2C1=O = test: steady-state kinetics (KM); compromised binding; assay type: biochemical, Caldalkalibacillus thermarum; conditions: FAD quinone-binding site; clashes with the side chain of E379
[4] = substrate: CC1=CC(=O)c2ccccc2C1=O; test: steady-state kinetics (KM) and stopped-flow flavin reoxidation; assay type: biochemical, Caldalkalibacillus thermarum; conditions: FAD quinone-binding site on the opposite face of the flavin to the nucleotide-binding site; I379 at the entry
purified protein [5] = substrate: NC(=O)C1=CN([C@@H]2O[C@H](COP(=O)(O)OP(=O)(O)OC[C@H]3O[C@@H](n4cnc5c(N)ncnc54)[C@H](O)[C@@H]3O)[C@@H](O)[C@H]2O)C=CC1; test: purified protein; conditions: FAD nucleotide-binding site, nicotinamide ring juxtaposed over the flavin; E198 hydrogen bonds to the adenine ribose; F165 moves
purified protein [6] = substrate: CC(=O)c1ccc[n+]([C@@H]2O[C@H](COP(=O)([O-])OP(=O)(O)OC[C@H]3O[C@@H](n4cnc5c(N)ncnc54)[C@H](O)[C@@H]3O)[C@@H](O)[C@H]2O)c1; test: purified protein; conditions: FAD competes with NAD+ for the reduced flavin

Molecule: NC(=O)C1=CN([C@@H]2O[C@H](COP(=O)(O)OP(=O)(O)OC[C@H]3O[C@@H](n4cnc5c(N)ncnc54)[C@H](O)[C@@H]3O)[C@@H](O)[C@H]2O)C=CC1 [NADH]
CTC formation by absorbance and stopped-flow flavin reduction [1]: When oxidized I379E reacts with NADH, the flavin is reduced and a CTC forms, as in the WT enzyme | Km [2]: > 1000 µM

Kd [3]: < 2 µM
Molecule: NC(=O)c1ccc[n+]([C@@H]2O[C@H](COP(=O)([O-])OP(=O)(O)OC[C@H]3O[C@@H](n4cnc5c(N)ncnc54)[C@H](O)[C@@H]3O)[C@@H](O)[C@H]2O)c1 [NAD^+]

Molecule: NDH-2 (type II NADH:quinone oxidoreductase) (Caldalkalibacillus thermarum TA2.A1; I379E)
Km (CC1=CC(=O)c2ccccc2C1=O): 780 µM

B1: NDH-2 (type II NADH:quinone oxidoreductase) (Caldalkalibacillus thermarum TA2.A1) (protein)
chain: T1 sequence (F5L3B8 1-399 I379E)
Km [4]: 34 µM | Km (purified protein [5]): 29 µM | Km (purified protein [6]): 7.2 µM
